Data taken from US20190153092A1 (NBE THERAPEUTICS, published 2019).

How the values were obtained:
[1] = biological target: T1, StrepII-tagged ROR1-extracellular domain (human) (human, UniProt Q01973 30-406); assay: SPR (Biacore T200), purified mAb captured by anti-human Fc, ROR1-strep 2.5-20 nM as analyte, 1:1 model, 25 C
T1 construct: extracellular domain; also called ROR1-strep; soluble ROR1-strep
Experimental: ROR1-strep was diluted in running buffer using 2-fold serial dilutions ranging from 20 nM to 2.5 nM. Association was measured at a flow of 30 μl/min for 120 s, and dissociation was followed for 200 s. Curves were fitted using 30 s dissociation due to upper plateau formation at later timepoints. Capture levels ranged from 29.1 RU to 57.7 RU.

[2] = biological target: T1, StrepII-tagged ROR1-extracellular …; assay: SPR (Biacore T200), IgG from HEK293T supernatant captured by anti-human Fc, ROR1-strep 2.5-20 nM as analyte, 1:1 model, 25 C
Experimental: For initial determination of huR12 clone affinities and parental R12 using transient HEK293T supernatants, IgG expression vectors were transiently transfected into 293T cells and IgG titers in supernatants were quantified by ELISA. For SPR, supernatants were diluted to 1 μg/ml IgG with running buffer (HBS-EP+ pH 7.4 (10 mM HEPES, 150 mM NaCl, 3 mM EDTA, 0.05% Tween 20)) and captured for 200 s with a flow of 30 μl/min. ROR1-strep was diluted in running buffer using 2-fold serial dilutions ranging from 20 nM to 2.5 nM. Association was measured at a flow of 30 μl/min for 120 s, and dissociation was followed for 1000 s. Capture levels ranged from 26.9 RU to 54.1 RU.

[3] = biological target: T1, StrepII-tagged ROR1-extracellular …; assay: SPR (Biacore T200), purified mAb captured by goat anti-human Fc-gamma IgG, ROR1-strep 1.25 to 20 nM, 120 s association, 1000 s dissociation, 1:1 model
Experimental: FIG. 13: Comparison of affinities of humanized and parental R12 mAbs determined by SPR using purified antibody. The three humanized R12 mAbs indicated were expressed at large scale in HEK293T cells, purified by Protein A affinity chromatography and subjected to SPR analysis for determination of affinity towards soluble ROR1-strep. Antibodies were captured using a goat α-human Fc-gamma-specific IgG. ROR1-strep was diluted in running buffer using 2-fold serial dilutions ranging from 1.25 nM to 20 nM. Association was measured 120 s, and dissociation was followed for 1000 s. Capture levels ranged from 26.9 RU to 54.1 RU.

T1 sequence (Q01973 other isoform, or with tags, fused parts or gaps): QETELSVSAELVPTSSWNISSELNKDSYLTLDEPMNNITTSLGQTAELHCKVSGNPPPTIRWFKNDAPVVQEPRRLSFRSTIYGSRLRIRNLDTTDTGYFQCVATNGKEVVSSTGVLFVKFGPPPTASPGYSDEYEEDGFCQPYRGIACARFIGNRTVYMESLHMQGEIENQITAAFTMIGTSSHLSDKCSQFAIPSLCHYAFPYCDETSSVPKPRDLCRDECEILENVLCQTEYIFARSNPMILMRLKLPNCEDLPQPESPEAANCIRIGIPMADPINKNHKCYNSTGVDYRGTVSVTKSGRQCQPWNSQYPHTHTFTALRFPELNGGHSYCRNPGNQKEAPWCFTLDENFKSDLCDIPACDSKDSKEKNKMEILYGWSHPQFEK

Row | Binder | Kd [1] [nM] | koff [1] [s⁻¹] | kon [1] [M⁻¹ s⁻¹] | Kd [2] [nM] | koff [2] [s⁻¹] | kon [2] [M⁻¹ s⁻¹] | Kd [3] [nM]
1 | hu2A2-D23, humanized from 2A2 (antibody, human IgG1, V domains shown, Human IgG1/kappa, expressed in 293T cells and purified; also called msD23-19) VH: QVQLVESGAEVKKPGASVKLSCKASGYTFSDYEMHWVRQAPGQRLEWMGAIDPETGGTAYNQKFKGRVTITVDKSASTAYMELSSLRSEDTAVYYCTGYYDYDSFTYWGPGTTVTVSS VL: DIVMTQSPSTLSASVGDRVTITCKASQNVDAAVAWYQQKPGTAPKLLIYSASNRYTGVPSRFSGSGSGTEFTLTISSLQSEDLADYFCQQYDIYPYTFGQGTKLEIK | 8 | 0.0138 | 1.72e+06 | – | – | – | –
2 | hu2A2-D16, humanized from 2A2 (antibody, human IgG1, V domains shown, Human IgG1/kappa, expressed in 293T cells and purified; also called msD16-7) VH: EVQLVESGAEVKKPGASVKVSCKASGYTFSDYEMHWVRQAPGQGLEWVGAIDPETGGTAYNQKFKGRVTMTRDTSTSTVYMELSSLRSEDTAVYYCTGYYDYDSFTYWGQGTLVTVSS VL: DIQMTQSPSSLSASVGDRVTITCKASQNVDAAVAWYQQKPGKAPKLLIYSASNRYTGIPTRFSGSGSGTDFTLTISSLQSEDLADYFCQQYDIYPYTFGQGTKVEIK | 10.9 | 0.0189 | 1.73e+06 | – | – | – | –
3 | hu2A2b-Q11, humanized from 2A2 (antibody, human IgG1, V domains shown, also called hu2A2-Q11; msQ11-3) VH: EVQLVQSGAEVKKPGASVKVSCKASGYTFSDYEMHWVRQAPGQGLEWLGAIDPETGGTAYNQKFKGRVTMTGDTSISTAYMELSRLTSDDTAVYYCTGYYDYDSFTYWGQGTLVSVSS VL: DIQMTQSPSSLSTSVGDRVTITCKASQNVDAAVAWYQQKPGKAPKLLIYSASNRYTGVASRFSGSGSGTDFTFTISSLQSEDLADYFCQQYDIYPYTFGQGTKLEIK | 9.9 | 0.0173 | 1.75e+06 | – | – | – | –
4 | huR12_4, humanized from R12 (antibody, human IgG1, V domains shown, Human IgG1 with lambda light chain) VH: QVQLVESGGELVQPGGSLTLSCKASGFDFSAYYMSWVRQAPGKGLEWIATIYPSSGKTYYAASVQGRFTISADNAKNTVYLQMNSLTAADTATYFCARDSYADDGALFNIWGKGTLVTVSS VL: QLVLTQSPSVSAALGSSAKITCTLSSAHKTDTIDWYQQLAGQAPRYLMYVQSDGSYEKRSGVPDRFSGSASGADRYLAISRVQADDEADYYCGADYIGGYVFGGGTQLTVLG | – | – | – | 0.091 | 9.93e-05 | 1.09e+06 | 0.0571
5 | chimeric mAb 2A2 (mouse variable regions, human IgG1/kappa constant regions) (antibody, V domains shown, also called chim 2A2; parental mAb 2A2) VH: QVQLQQSGAELVRPGASVTLSCKASGYTFSDYEMHWVIQTPVHGLEWIGAIDPETGGTAYNQKFKGKAILTADKSSSTAYMELRSLTSEDSAVYYCTGYYDYDSFTYWGQGTLVTVSA VL: DIVMTQSQKIMSTTVGDRVSITCKASQNVDAAVAWYQQKPGQSPKLLIYSASNRYTGVPDRFTGSGSGTDFTLTISNMQSEDLADYFCQQYDIYPYTFGGGTKLEIK | 5.7 | 0.00968 | 1.69e+06 | – | – | – | –
6 | rbQ11, humanized from R11 (antibody, human IgG1, V domains shown, Human IgG1/kappa, expressed in 293T cells and purified; also called huR11-Q11; rbQ11-32) VH: EVQLVQSGGGLVQPGGSLRLSCAASGSDINDYPISWVRQAPGKGLEWVSFINSGGSTWYASWVKGRFTISRDNAKNSLYLQMNSLRDDDTATYFCARGYSTYYGDFNIWGQGTLVTVSS VL: DIVMTQSPSSLSASVGDRVTITCQASQSIDSNLAWFQQKPGKAPKSLIYRASNLASGVPSKFSGSGSGTDFTLTISSLQREDAATYYCLGGVGNVSYRTSFGGGTKVEIK | 6.1 | 0.00498 | 821000 | – | – | – | –
7 | Chimeric mAb R12 (rabbit variable regions, human IgG1/lambda constant regions) (antibody, V domains shown, Full-length IgG1 with human gamma 1 and lambda constant regions; also called parental mAb R12) VH: QEQLVESGGRLVTPGGSLTLSCKASGFDFSAYYMSWVRQAPGKGLEWIATIYPSSGKTYYATWVNGRFTISSDNAQNTVDLQMNSLTAADRATYFCARDSYADDGALFNIWGPGTLVTISS VL: ELVLTQSPSVSAALGSPAKITCTLSSAHKTDTIDWYQQLQGEAPRYLMQVQSDGSYTKRPGVPDRFSGSSSGADRYLIIPSVQADDEADYYCGADYIGGYVFGGGTQLTVT | – | – | – | 1.03 | 0.000361 | 349000 | 0.427
8 | huR12_11, humanized from R12 (antibody, human IgG1, V domains shown, Human IgG1 with lambda light chain) VH: QVQLVESGGALVQPGGSLTLSCKASGFDFSAYYMSWVRQAPGKGLEWIATIYPSSGKTYYAASVQGRFTISADNAKNTVYLQMNSLTAADTATYFCARDSYADDGALFNIWGQGTLVTVSS VL: QLVLTQSPSVSAALGSSAKITCTLSSAHKTDTIDWYQQLAGQAPRYLMYVQSDGSYEKRSGVPDRFSGSSSGADRYLIISSVQADDEADYYCGADYIGGYVFGGGTQLTVG | – | – | – | 0.084 | 9.65e-05 | 1.15e+06 | 0.0616

Continued, values first:

Row | Kd [1] [nM] | koff [1] [s⁻¹] | kon [1] [M⁻¹ s⁻¹] | Kd [2] [nM] | koff [2] [s⁻¹] | kon [2] [M⁻¹ s⁻¹] | Kd [3] [nM] | Binder
9 | – | – | – | 0.11 | 0.000116 | 1.05e+06 | 0.051 | huR12_7, humanized from R12 (antibody, human IgG1, V domains shown, Human IgG1 with lambda light chain) VH: QVQLVESGGELVQPGGSLTLSCKASGFDFSAYYMSWVRQAPGKGLEWIATIYPSSGKTYYAASVQGRFTISADNAKNTVSLQMNSLTAADTATYFCARDSYADDGALFNIWGKGTLVTVSS VL: QLVLTQSPSVSAALGSSAKITCTLSSAHKTDTIDWYQQLAGQAPRYLMYVQSDGSYEKRSGVPDRFSGSSSGADRYLIISSVQADDEADYYCGADYIGGYVFGGGTQLTVLG
10 | 9 | 0.0071 | 785000 | – | – | – | – | rbD4, humanized from R11 (antibody, human IgG1, V domains shown, Human IgG1/kappa, expressed in 293T cells and purified; also called huR11-D4; rbD4-32) VH: EVQLVESGGGLVQPGRSLRLSCTASGSDINDYPISWFRQAPGKGLEWVGFINSGGSTWYASWVKGRFTISRDDSKSIAYLQMNSLKTDDTATYFCARGYSTYYGDFNIWGQGTTVTVSS VL: DVVMTQSPSSLSASVGDRVTITCQASQSIDSNLAWFQQKPGKAPNLLIYRASNLASGVPSRFSGSGSGTEFTLTISSLQREDAATYYCLGGVGNVSYRTSFGQGTKVEIK
11 | 14.2 | 0.0104 | 733000 | – | – | – | – | rbQ12, humanized from R11 (antibody, human IgG1, V domains shown, Human IgG1/kappa, expressed in 293T cells and purified; also called huR11-Q12; rbQ12-40) VH: EVQLVESGGGLVQPGGSLRLSCAASGSDINDYPISWVRQAPGKGLEWVSFINSGGSTWYASWVKGRFTISRDNAKNSLYLQMNSLRADDTATYFCARGYSTYYGDFNIWGQGTMVTVSS VL: EIVMTQSPSSLSASVGDRVTITCQASQSIDSNLAWFQQKPGKAPNLLIYRASNLASGVPSRFSGSGSGTEFTLTISSLQREDAATYYCLGGVGNVSYRTSFGQGTKVEIK
12 | – | – | – | 0.092 | 8.79e-05 | 960000 | – | huR12_16, humanized from R12 (antibody, human IgG1, V domains shown, Human IgG1 with lambda light chain) VH: QVQLVESGGELVTPGGSLTLSCKASGFDFSAYYMSWVRQAPGKGLEWIASIYPSSGKTYYAAAVQGRFTISADNAKNTVYLQMNSLTAADTATYFCARDSYADDGALFNIWGQGTLVTVSS VL: QLVLTQSPSVSAALGSSAKITCTLSSAHKTDTIDWYQQLAGQAPRYLMYVQSDGSYEKRSGVPDRFSGSSSGADRYLIISSVQADDEADYYCGADYIGGYVFGGGTQLTVG
